Biological target: T1, Human CTLA4 Fc chimeric protein (human, UniProt P16410 37-162, limits assumed)
T1 construct: Bought from R&D Systems; Used at about 20 ug/ml; also called recombinant CTLA4 protein; not shown: human IgG Fc (detected with mouse anti human IgG Fc FITC)
T1 sequence (looked up): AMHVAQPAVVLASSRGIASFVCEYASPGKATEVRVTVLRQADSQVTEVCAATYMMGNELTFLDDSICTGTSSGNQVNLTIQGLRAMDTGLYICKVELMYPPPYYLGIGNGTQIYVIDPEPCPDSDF
Assay: flow cytometry on L cell transfectants
Description: Recombinant cells L-pCMV-nFeB7-2₉₉₉, and L-pCMV-nFeB7-1₈₇₉, produced as described in Example 8, were tested for surface expression of feline B7-1 or B7-2 by determining if human CTLA4 will bind. Briefly, 1×10⁵ (per condition) L-pCMV-nFeB7-2₉₉₉ or L-pCMV-nFeB7-1₈₇₉ cells or, as a negative control, L cells transfected with the empty pCMV vector and the PMLBKTK plasmid (L-CMV) were incubated in phosphate buffered saline (PBS) containing 30% fetal bovine serum (FBS) for about 30 min on ice. The cells were then spun down and treated with the following:
Human CTLA4 Fc chimeric protein, available from R&D systems, Minneapolis, Minn., was used at about 20 μg/ml. Mouse anti human IgG Fe FITC, available from Sigma, was used at about 65 μg/ml. These reagents were diluted in PBS/5% FBS. All incubations were performed in about 100 μl for about 1 hr on ice with 3 washes of PBS/5% FBS in between each incubation. Cells were then analyzed on a flow cytometer (MoFlow Desk Top System, Cytomation, Ft Collins, Colo.) with the fluorescein gate set at 10¹.

binding result: binds
B1: feline B7-2 protein expressed on L-pCMV-nFeB7-2999 recombinant L cells (PFeB7-2332) (ligand)
chain: VSSMKSQAYFNKTGELPCHFTNSQNISLDELVVFWQDQDKLVLYEIFRGKENPQNVHLKYKGRTSFDKDNWTLRLHNVQIKDKGTYHCFIHYKGPKGLVPMHQMSSDLSVLANFSQPEITVTSNRTENSGIINLTCSSIQGYPEPKEMYFQLNTENSTTKYDTVMKKSQNNVTELYNVSISLPFSVPEAHNVSVFCALKLETLEMLLSLPFNIDAQPKDKDPEQGHFLWIAAVLVMFVVFCGMVSFKTLRKRKKKQPGPSHECETIKRERKESKQTNERVPYHVPERSDEAQCINILKTASGDKSTTHF
notes: also called PFeB7-2309 (mature)

Reference: US20040157296A1 (HESKA, published 2004)
